# B1: monoclonal antibody 13C3 (antibody, IgG1, V domains shown)
# VH: QVQLQQSGPELVRPGVSVKISCKGSGYTFTDYAMHWVKQSHAKSLEWIGVISTKYGKTNYNQKFKGKATMTVDKSSSTAYMELARLTSEDSAIYYCARGDDGYSWGQGTSVTVSS
# VL: DVVMTQTPLSLPVSLGDQASISCRSGQSLVHSNGNTYLHWYLQKPGQSPKLLIYTVSNRFSGVPDRFSGSGSGSDFTLKISRVEAEDLGVYFCSQNTFVPWTFGGGTKLEIKR
# notes: Hybridoma ATCC PTA-8830; also called mAb 13C3; anti-Aβ antibody clone 13C3
# Legend:
# [1] = biological target: T1, protofibrillar (PF) form of Aβ42 (human); assay: SPR (BIAcore), ratio of PF binding to LMW binding
# T1 construct: also called PF Aβ42; protofibril form of Aβ
# T1 sequence (peptide, as listed by the source): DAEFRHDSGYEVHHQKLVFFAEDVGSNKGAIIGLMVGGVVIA
# Procedure: (§1) The purified monoclonal antibodies listed in Table 1 (below), were immobilized to a BIAcore sensor chip in accordance with publish protocols. (Nice, et al. BioEssays 21: 339-352 (1999)). The high sensitivity of the BIAcore optical response quantifies a change in reflectivity and a baseline response for the ligand alone is generated. The interaction analysis is performed as the analytes, the LMW form or the PF form of […], are injected in solution over the sensor chip and the change in surface plasmon resonance generates a response identifying the specificity of each antibody's ability to bind LMW and PF Aβ42. Both the 13C3 and the 19A6 antibodies all bound to the PF form of Aβ 42 with higher specificity than the LMW form.
# [2] = biological target: T1, protofibrillar (PF) form of Aβ42; assay: SPR (BIAcore), ratio of PF binding to LMW binding; remark: listed apart in the source
# Procedure: as §1
# Automated BIAcore systems, which use the detection principle of Surface Plasmon Resonance, were used in these experiments.
binder,measurement,setting,value
B1,Ratio (PF/LMW),[1],5
same,binding ratio (PF/LMW),[2],5.3
